Values quoted from earlier work, collected in article PMC5904255.

Target: C1q (Homo sapiens) (UniProt P02745)
Sequence (P02745 23-245, chain 1 of 3): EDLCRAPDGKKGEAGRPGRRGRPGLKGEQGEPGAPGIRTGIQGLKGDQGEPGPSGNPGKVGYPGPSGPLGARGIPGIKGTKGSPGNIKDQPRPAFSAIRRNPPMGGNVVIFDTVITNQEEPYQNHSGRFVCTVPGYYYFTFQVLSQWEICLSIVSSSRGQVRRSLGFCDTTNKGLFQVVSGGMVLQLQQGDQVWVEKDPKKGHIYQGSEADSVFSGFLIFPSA
Sequence (P02746 28-253, chain 2 of 3, further chain): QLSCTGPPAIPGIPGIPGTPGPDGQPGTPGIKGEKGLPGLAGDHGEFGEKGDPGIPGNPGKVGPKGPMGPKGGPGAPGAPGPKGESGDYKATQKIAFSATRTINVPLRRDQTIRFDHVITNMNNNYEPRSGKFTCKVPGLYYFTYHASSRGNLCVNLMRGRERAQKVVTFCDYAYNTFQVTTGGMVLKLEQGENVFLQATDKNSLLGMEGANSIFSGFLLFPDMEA
Sequence (P02747 29-245, chain 3 of 3, further chain): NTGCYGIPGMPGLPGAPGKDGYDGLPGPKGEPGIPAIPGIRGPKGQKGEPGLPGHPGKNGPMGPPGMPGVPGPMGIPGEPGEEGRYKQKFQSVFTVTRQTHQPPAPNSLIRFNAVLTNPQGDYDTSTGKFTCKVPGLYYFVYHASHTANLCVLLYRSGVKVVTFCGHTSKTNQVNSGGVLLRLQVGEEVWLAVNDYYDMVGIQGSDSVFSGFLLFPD

HMGB1, sequence (P09429 whole entry): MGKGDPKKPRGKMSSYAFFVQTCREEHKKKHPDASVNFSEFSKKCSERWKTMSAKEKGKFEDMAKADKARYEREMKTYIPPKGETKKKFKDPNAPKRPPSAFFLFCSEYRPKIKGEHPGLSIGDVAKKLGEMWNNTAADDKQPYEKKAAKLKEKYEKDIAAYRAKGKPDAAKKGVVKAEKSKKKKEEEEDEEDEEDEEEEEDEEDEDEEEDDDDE

- Kd: 200 nM
Substance: HMGB1 (from UniProt P09429)
